According to PMC10715591, “EspB and HtpG interact with the type III-A CRISPR/Cas system of Mycobacterium tuberculosis” (Frontiers in Molecular Biosciences, 2023):

Molecular target: T1, MtbHtpG (high-temperature protein G) (Mycobacterium tuberculosis H37Rv, UniProt P9WMJ7 1-647)
T1 construct: also called Chaperone htpG
T1 sequence: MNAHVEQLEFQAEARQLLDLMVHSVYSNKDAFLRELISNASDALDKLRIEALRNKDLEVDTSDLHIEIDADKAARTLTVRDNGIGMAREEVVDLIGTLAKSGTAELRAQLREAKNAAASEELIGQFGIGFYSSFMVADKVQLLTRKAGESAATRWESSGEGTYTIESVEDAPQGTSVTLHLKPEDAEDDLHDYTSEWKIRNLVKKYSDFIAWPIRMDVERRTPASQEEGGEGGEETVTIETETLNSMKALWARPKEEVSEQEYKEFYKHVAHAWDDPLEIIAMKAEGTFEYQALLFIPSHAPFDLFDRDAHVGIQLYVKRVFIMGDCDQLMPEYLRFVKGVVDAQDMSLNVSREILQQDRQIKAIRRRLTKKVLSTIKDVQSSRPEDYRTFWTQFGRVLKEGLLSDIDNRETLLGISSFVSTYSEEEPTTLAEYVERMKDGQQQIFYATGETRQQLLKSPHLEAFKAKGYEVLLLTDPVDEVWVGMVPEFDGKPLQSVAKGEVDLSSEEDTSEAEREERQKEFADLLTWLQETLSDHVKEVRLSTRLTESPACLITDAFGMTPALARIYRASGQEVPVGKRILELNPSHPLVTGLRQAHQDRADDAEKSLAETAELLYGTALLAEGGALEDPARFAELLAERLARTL
Test: SPR
Conditions: both partners purified

B1: MtbCsm3 (natural protein)
chain: MTTSYAKIEITGTLTVLTGLQIGAGDGFSAIGAVDKPVVRDPLSRLPMIPGTSLKGKVRTLLSRQYGADTETFYRKPNEDHAHIRRLFGDTEEYMTGRLVFRDTKLTNKDDLEARGAKTLTEVKFENAINRVTAKANLRQMERVIPGSEFAFSLVYEVSFGTPGEEQKASLPSSDEIIEDFNAIARGLKLLELDYLGGSGTRGYGQVKFSNLKARAAVGALDGSLLEKLNHELAAV
**Q.** What does the source list for B1?
**A.** Kd: 59.4 nM; koff: 0.000914 s⁻¹; kon: 15400 M⁻¹ s⁻¹
